Sequences and labels used below:
B1: minimum DdrO binding sequence of PrecA (21 bp) (dsDNA)
DNA 1: TGTTATGCTGCTAGCAGAAAT
DNA 2: ATTTCTGCTAGCAGCATAACA

Consider 13 molecules from PMC4374696, “Protease Activity of PprI Facilitates DNA Damage Response: Mn(2+)-Dependence and Substrate Sequence-Specificity of the Proteolytic Reaction”.

One data set deals with T1, DdrO (Deinococcus radiodurans R1 (ATCC 13939), UniProt Q9RRB8 1-131).
T1 sequence: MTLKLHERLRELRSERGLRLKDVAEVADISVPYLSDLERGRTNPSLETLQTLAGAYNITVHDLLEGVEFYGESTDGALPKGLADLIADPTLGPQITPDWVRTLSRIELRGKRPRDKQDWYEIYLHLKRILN
Nature of the data set: EMSA; 150 mM NaCl, 20 mM Tris-HCl pH 8.0, 5 mM MgCl2, 1.6 uM DNA, 0-16 uM protein, 30 C; 12% TB-PAGE. The conditions noted are these: protein: recombinant; tags: 6xHis-MBP tag removed by TEV; chain copies: 2; blunt. In general terms: In EMSA bound probe runs differently from free probe, usually more slowly.
On to B1, for which the binding result is on record as “binds”.

A further data set deals with T2, DdrO (Deinococcus radiodurans R1 (ATCC 13939)) (UniProt Q9RRB8).
T2 sequence: T1 sequence
Nature of the data set: EMSA. The conditions noted are these: 150 mM NaCl, 20 mM Tris-HCl pH 8.0, 5 mM MgCl2, 1.6 uM DNA, 0-16 uM protein, 30 C; 12% TB-PAGE.
With “TAAAAAGGCCAGGGGTAGCACTCTGGCATAAGGAAAACCCAGCTTCGGCGGTCTTTGTGCCTTTGCCAGCTTTCACGGCGAAAGAAACGTCCAGATGACAGTGACACCCAAAGTGCACCCGGCGCCGTTCAGGGCACAGGTGCGGACTACAGTGGGGCCGTGAC (double strand) [PpprA- (no RDRM)]”, the binding result was “no binding”.

On to “AGAAACACCAGCATGATCGCAAGGTAGGCTGCTCCGCGCACTGGGGCGTCCGCCGAAAGGTGCAGCGCGCCTCACCTTCCCTTGACCCATCCCATTCAGGGCCGCACCCTGTAGACACTGGTTACGTCCTCCCATATACTCCGGTGAGGTTGTTATGCTGCTAGCAGAAATCATCAGTGTGGGCACG (double strand) [PrecA (recA promoter, RDRM)]”, for which the binding result was “binds”.

As to “AGTTTAGAACAGAATAACATTACGGTCAAGACATAAAACGCCAGTTGATTAAGGGGAAATGGAGAGGGGTTCGGGGCGGCCCCTGCCTGCTCTGTCGGCCAGCTTTCGGCAGAGTGGGCCCCGGCTCCGGCGCACTGACGCGGGCTAGACCCTCCCGCGCCGCCCTCCACCGCCGCCTCTACCTTCGTCCTATGCCCCG (double strand) [PddrA]”, the binding result is reported as “binds”.

“TAGTAACAAGCAGAGTCAATTATGTCAATGACATAAAAGGCTCAGGCCTTCTTGGTCTTCCACTCCGGGCGGTCCTTGACCACCAGGACGCGGCGGACGTTGTCGCGCAGGCGCAGGCTGCTGGCGATGGCGGTTTCGGGGTTGCCCGAAGCCTTGATGGTGTACATCAGGTAGTAGCCTTCGCGGTCCTTGCCCACCTGG (double strand) [PdrssB]”: the binding result is listed as “binds”.

On to “GCACTGCGGCTTGCAGCGCCGGGTGACCATGCCCAGCCTCCCTGCTCCAGCGCCCGCCCGCAAACCCGAGCGGCGGCTGTTCGGGCTCTTGCGAATCTGAAGGTCTTGGTGCCCGGCCTCTGCTGGGAGGCGGGACACTGGCACCGGCTTCCCCGATGTG (double strand) [PddrB- (no RDRM)]”, for which the binding result is listed as “no binding”.

For “CCCTTGCCATACTGCCTTTATTATGCCCTGAACAGATTAAAAAGGCCAGGGGTAGCACTCTGGCATAAGGAAAACCCAGCTTCGGCGGTCTTTGTGCCTTTGCCAGCTTTCACGGCGAAAGAAACGTCCAGATGACAGTGACACCCAAAGTGCACCCGGCGCCGTTCAGGGCACAGGTGCGGACTACAGTGGGGCCGTGAC (double strand) [PpprA]”, the binding entry is “binds”.

As for “TACTGCGGTCTGACGATGACCTCGTCCTTATCTGCGGGAGCCTCTATCTGCTCGGCGAACTGCGTCCTTTGCTGCTGGGCGAGCAGTCGGAAGGCCACGAACGCTGGCAATAGCCACAGCAGCGGCCAATTTCTGGTTTCGAAACAGGAATAAGGCAAGTTGACTGCCCTCATTCTGTATTGACCGTAGCAAGGAGCGGTGTTACACT (double strand) [PddrO]”, the binding result is reported as “binds”.

On to “GCACTGCGGCTTGCAGCGCCGGGTGACCATGCCCAGCCTCCCTGCTCCAGCGCCCGCCCGCAAACCCGAGCGGCGGCTGTTCGGGCTCTTGCGAATCTGAAGGTCTTGGTGCCCGGCCTCTGCTGGGAGGCGGGACACTGGCACCGGCTTCCCCGATGTGTTATGTTATTTACGTAAGGAGGAGGCAGATGTTGCAGATT (double strand) [PddrB]”, for which the binding result is given as “binds”.

With “TACTGCGGTCTGACGATGACCTCGTCCTTATCTGCGGGAGCCTCTATCTGCTCGGCGAACTGCGTCCTTTGCTGCTGGGCGAGCAGTCGGAAGGCCACGAACGCTGGCAATAGCCACAGCAGCGGCCAATTTCTGGTTTCGAAACAGGAATAAGGCAAGTTGACTGCCCTCA (double strand) [PddrO- (no RDRM)]”, the binding result is “no binding”.

For “CAACCTCACCGGAGTATATGGGAGGACGTAACCAGTGTCTACAGGGTGCGGCCCTGAATGGGATGGGTCAAGGGAAGGTGAGGCGCGCTGCACCTTTCGGCGGACGCCCCAGTGCGCGGAGCAGCCTACCTTGCGATCATGCTGGTGTTTCT (double strand) [PrecA- (no RDRM)]”, the binding result is given as “no binding”.

For the molecule “AACGCCAGTTGATTAAGGGGAAATGGAGAGGGGTTCGGGGCGGCCCCTGCCTGCTCTGTCGGCCAGCTTTCGGCAGAGTGGGCCCCGGCTCCGGCGCACTGACGCGGGCTAGACCCTCCCGCGCCGCCCTCCACCGCCGCCTCTACCTTCGTCCTATGCCCCG (double strand) [PddrA- (no RDRM)]”, the binding result is “no binding”.

As to “AGGAGCAGTTTCTTCATGAAGCCTCCAGATCAAAGGCGCACGAAGCAGGCCTGCCCCAAAGGAAGGCGGGCCTGCTGGGTTGCGTGACAGCCGGGACGTAAATAATGGCCCCAGGGTAGGGGCGGGCCGGGGGGGTGTCAAGGTACGCAGCGGGGGGCCTCCATGATTCTGCCCACAACGTAAACGCGCTATCCTGGGGAG (double strand) [PrecQ- (no RDRM)]”, the binding result was “no binding”.
